Assay results taken from PMC5389710 (Nucleic Acids Research, 2016).

Tests used:
Test in all cases: ITC
[1] = target: Xenopus laevis core histone H2B (X. laevis, UniProt P02281 1-126)
[2] = target: Xenopus laevis core histone H3 (X. laevis, UniProt P84233 1-136)
[3] = target: Chicken erythrocyte H3–H4 histone dimer (chicken, UniProt P84229 1-136; P62801 1-103)

B1: Arabidopsis thaliana NAP1-related protein 1 (NRP1) (natural protein)
chain: MVADKSKKSKIEEKGEEENLEQIDAELVLSIEKLQEIQDDLEKINEKASDEVLEVEQKYNVIRKPVYDKRNEVIQSIPGFWMTAFLSHPALGDLLTEEDQKIFKYLNSLEVEDAKDVKSGYSITFHFTSNPFFEDAKLTKTFTFLEEGTTKITATPIKWKEGKGLPNGVNHDDKKGNKRALPEESFFTWFTDAQHKEDAGDEIHDEVADIIKEDLWSNPLTYFNNDADEEDFDGDDDGDEEGEEDDDDEEEEDGEE
[1]
  Kd: 9.6 µM
[2]
  Kd: 20 µM
[3]
  Kd: 400 nM
